In paper PMC11739670 (European Journal of Immunology, 2024):
Where “and” joins values, the source holds several entries; their conditions need not be identical. Equal entries are not always repeated.

Assays:
Conditions in all cases: both partners purified
[1] = biological target: T1, MHCI-related protein 1 (MR1) with β2m, loaded with 5-(2-oxopropylideneamino)-6-d-ribitylaminouracil (human, UniProt Q95460 23-302; P61769 21-119, biotin on the Avi-tag (BirA ligase)); test: SPR; BIAcore T200, CM5 chip with streptavidin; biotinylated pMHCI, MR1 or CD1 captured; serial dilution of CD8-Fc fusion injected; 25°C, PBS with 0.005% Tween 20; steady-state responses, 1:1 Langmuir fit
T1 construct: MR1 heavy chain, human; beta-2 microglobulin; Small-molecule cargo: 5-OP-RU; Same protein chains as Dm12 and Dm13; they differ in the cargo only; also called MR1-5OPRU; not shown: Avi-tag, C-terminal, kept

[2] = biological target: HLA-A*02:01 with peptide … (human | , biotin on the Avi-tag (BirA ligase)); test: as above
[3] = biological target: HLA-A*02:01 with peptide … (human | , biotin on the Avi-tag (BirA ligase)); test: as above; remark: listed apart in the source
[4] = biological target: HLA-A*03:01 with peptide … (human | , biotin on the Avi-tag (BirA ligase)); test: as above
[5] = biological target: T2, MHCI-related protein 1 (MR1) with β2m, loaded with 5-formyl salicylic acid (human, UniProt Q95460 23-302; P61769 21-119, biotin on the Avi-tag (BirA ligase)); test: as above
T2 construct: MR1 heavy chain, human; beta-2 microglobulin; Small-molecule cargo: 5-formyl salicylic acid; Same protein chains as Dm11 and Dm12; they differ in the cargo only; also called MR1-5FSA; not shown: Avi-tag, C-terminal, kept

[6] = biological target: HLA-A*01:01 with peptide … (human | , biotin on the Avi-tag (BirA ligase)); test: as above
[7] = biological target: T3, MHCI-related protein 1 (MR1) with β2m, loaded with 6-formylpterin (human, UniProt Q95460 23-302; P61769 21-119, biotin on the Avi-tag (BirA ligase)); test: as above
T3 construct: MR1 heavy chain, human; beta-2 microglobulin; Small-molecule cargo: 6-formylpterin; Same protein chains as Dm11 and Dm13; they differ in the cargo only; also called MR1-6FP; not shown: Avi-tag, C-terminal, kept

[8] = biological target: HLA-A*01:01 peptide-MHC class I (biotinylated pMHCI) (human | , biotin on the Avi-tag (BirA ligase)); test: SPR; biotinylated ligands (pMHCI, MR1, CD1) captured on streptavidin coupled to a CM5 chip; serial dilution of each CD8-Fc fusion injected; steady-state responses, 1:1 Langmuir fit; BIAcore T200, 25°C, PBS with 0.005% Tween 20
[9] = biological target: T4, MHCI-related protein 1 (MR1) with β-2 microglobulin, biotinylated, loaded with model ligands (human | , UniProt Q95460 23-292; P61769 21-119, biotin on the Avi-tag (BirA ligase)); test: as above
T4 construct: MR1 heavy chain, human; β-2 microglobulin; Small-molecule cargoes: 5-(2-oxopropylideneamino)-6-d-ribitylaminouracil, 6-formylpterin, 5-formyl salicylic acid; not shown: Avi-tag, C-terminal, kept

[10] = biological target: HLA-A*02:01 peptide-MHC class I (biotinylated pMHCI) (human | , biotin on the Avi-tag (BirA ligase)); test: as above

B1: soluble human CD8αβ-Fc heterodimer (Fc fusion)
chain 1: not shown
chain 2: LQQTPAYIKVQTNKMVMLSCEAKISLSNMRIYWLRQRQAPSSDSHHEFLALWDSAKGTIHGEEVEQEKIAVFRDASRFILNLTSVKPEDSGIYFCMIVGSPELTFGKGTQLSVVDFLPTTAQPTKKSTLKKRVCRLPRPETQKGPLCSP
notes: CD8 alpha extracellular domain, human, Uniprot P01732, residues 22-182; CD8 beta extracellular domain, human, Uniprot P10966, residues 22-170; Cloned in pFUSE-hIgG1e3 behind a mouse kappa light-chain secretion signal; source: ExpiCHO, purified (protein A, gel filtration); copies: 1 + 1
In the case of B1, the Kd [1] is reported as 228 µM and 233 µM, the Kd [2] is reported as 238 µM and the Kd [3] is reported as 255 µM and 244 µM. For the same binder, the Kd [4] was 147 µM, the Kd [5] was 267 µM and 285 µM and the Kd [6] was 101 µM. The Kd [7] was 250 µM and 220 µM.

B2: soluble human CD8αβ-Fc heterodimer (Fc fusion)
chain 1: not shown
chain 2: B1 chain 2
notes: CD8α extracellular domain, human, Uniprot P01732, residues 22-182; CD8β extracellular domain, human, Uniprot P10966, residues 22-170; Cloned into pFUSE-hIgG1e3 downstream of a mouse kappa light-chain secretion signal, subcloned into pcDNA3.1; source: ExpiCHO, purified (protein A, gel filtration on Superdex 200); copies: 1 + 1
For B2, the Kd [8] was 107 µM, the Kd [9] was ~250 µM and the Kd [10] was 189 µM and ~230 µM.
